Strand notation (5' to 3'): a small letter for the sugar, then the base; units joined by * are phosphorothioate-linked, units joined directly phosphodiester-linked; [ ] holds rarer units or linkages, { } end groups; capitals alone tell only the bases. m = 2'-O-methyl; r = 2'-OH (RNA)
Tested on: HBV genome in HEK293T cells transduced with a lentiviral vector
Assay: Base editing efficiency in Hek293-lentiHBV system (PCR amplicons sequenced on MiSeq)
Type: cell-based, Hepatitis B virus
Set-up: Editing Efficiency 2 (%): concentration or dose not given beside the values
Settings: for Average Editing Efficiency (%): average of 3, base editor Cas12b-ABE; for Average Editing Efficiency (%) / Editing Efficiency 1 (%) / Editing Efficiency 2 (%) / Editing Efficiency 3 (%): plasmid transfection, four days; for Editing Efficiency 1 (%): replicate 1, base editor Cas12b-ABE; for Editing Efficiency 2 (%): replicate 2, base editor Cas12b-ABE; for Editing Efficiency 3 (%): replicate 3, base editor Cas12b-ABE

B1: cas12b-17: guide RNA SEQ ID NO: 382 (nucleic acid)
guide: mG*mU*mU*rCrUrGrUrCrUrUrUrUrGrGrUrCrArGrGrArCrArArCrCrGrUrCrUrArGrCrUrArUrArArGrUrGrCrUrGrCrArGrGrGrUrGrUrGrArGrArArArCrUrCrCrUrArUrUrGrCrUrGrGrArCrGrArUrGrUrCrUrCrUrUrArCrGrArGrGrCrArUrUrArGrCrArCrGrGrGrGrCrCrArArGrUrCrUrGrUrArCrArGrCrA
For B1, which “Average Editing Efficiency (%)” value is on record?
The value was 35.07%.

What about the “Editing Efficiency 1 (%)” value of the same molecule?
Its value is 26.42%.

And the “Editing Efficiency 2 (%)” value?
The value was 34.50%.

And the “Editing Efficiency 3 (%)” value?
The value was 44.29%.

B2: cas12b-147: guide RNA SEQ ID NO: 386 (nucleic acid)
guide: mG*mU*mU*rCrUrGrUrCrUrUrUrUrGrGrUrCrArGrGrArCrArArCrCrGrUrCrUrArGrCrUrArUrArArGrUrGrCrUrGrCrArGrGrGrUrGrUrGrArGrArArArCrUrCrCrUrArUrUrGrCrUrGrGrArCrGrArUrGrUrCrUrCrUrUrArCrGrArGrGrCrArUrUrArGrCrArCrGrArGrGrArCrArArArCrGrGrGrCrArArCrArUrA
B2 was tested. Which “Average Editing Efficiency (%)” value did it give?
Its value is 10.83%.

And the “Editing Efficiency 1 (%)” value?
Its value is 13.02%.

And the “Editing Efficiency 2 (%)” value?
Its value is 4.44%.

And the “Editing Efficiency 3 (%)” value?
The value was 15.03%.

B3: cas12b-100: guide RNA SEQ ID NO: 385 (nucleic acid)
guide: mG*mU*mU*rCrUrGrUrCrUrUrUrUrGrGrUrCrArGrGrArCrArArCrCrGrUrCrUrArGrCrUrArUrArArGrUrGrCrUrGrCrArGrGrGrUrGrUrGrArGrArArArCrUrCrCrUrArUrUrGrCrUrGrGrArCrGrArUrGrUrCrUrCrUrUrArCrGrArGrGrCrArUrUrArGrCrArCrUrUrCrUrUrCrUrArGrGrGrGrArCrCrUrGrCrCrU
B3 was tested. Which “Average Editing Efficiency (%)” value did it give?
The value was 5.18%.

And the “Editing Efficiency 1 (%)” value?
The value was 7.97%.

What about the “Editing Efficiency 2 (%)” value of the same molecule?
The value was 4.21%.

And the “Editing Efficiency 3 (%)” value?
Its value is 3.35%.

B4: cas12b-154: guide RNA SEQ ID NO: 387 (nucleic acid)
guide: mG*mU*mU*rCrUrGrUrCrUrUrUrUrGrGrUrCrArGrGrArCrArArCrCrGrUrCrUrArGrCrUrArUrArArGrUrGrCrUrGrCrArGrGrGrUrGrUrGrArGrArArArCrUrCrCrUrArUrUrGrCrUrGrGrArCrGrArUrGrUrCrUrCrUrUrArCrGrArGrGrCrArUrUrArGrCrArCrUrUrGrUrCrArArCrArArGrArArArArArCrCrCrC
Which “Average Editing Efficiency (%)” value does the source give for B4 here?
The value was 27.74%.

And the “Editing Efficiency 1 (%)” value?
Its value is 16.12%.

What about the “Editing Efficiency 2 (%)” value of the same molecule?
The value was 30.06%.

What about the “Editing Efficiency 3 (%)” value of the same molecule?
The value was 37.02%.

B5: G-553: guide RNA SEQ ID NO: 5506 (nucleic acid)
guide: GGGCAACGGGGUAAAGGUUCGUUUUAGAGCUAGAAAUAGCAAGUUAAAAUAAGGCUAGUCCGUUAUCAACUUGAAAAAGUGGCACCGAGUCGGUGCUUUU
modifications: sugars from the 5' end m3 r93 m3 r1, linkages s3 o93 s3 (s phosphorothioate, o phosphodiester), T or U not given here
Which “% Editing average” value (base editor ABE8.8-m) does the source give for B5 here?
The value was 64%.

B6: G-251: guide RNA SEQ ID NO: 5504 (nucleic acid)
guide: CAGGUAUUGUUUACACAGAAGUUUUAGAGCUAGAAAUAGCAAGUUAAAAUAAGGCUAGUCCGUUAUCAACUUGAAAAAGUGGCACCGAGUCGGUGCUUUU
modifications: sugars from the 5' end m3 r93 m3 r1, linkages s3 o93 s3 (s phosphorothioate, o phosphodiester), T or U not given here
With B6 as the molecule, how does the “% Editing average” value (base editor Abe7.10) read?
Its value is 77%.

B7: cas12b-35: guide RNA SEQ ID NO: 388 (nucleic acid)
guide: mG*mU*mU*rCrUrGrUrCrUrUrUrUrGrGrUrCrArGrGrArCrArArCrCrGrUrCrUrArGrCrUrArUrArArGrUrGrCrUrGrCrArGrGrGrUrGrUrGrArGrArArArCrUrCrCrUrArUrUrGrCrUrGrGrArCrGrArUrGrUrCrUrCrUrUrArCrGrArGrGrCrArUrUrArGrCrArCrCrCrCrArArGrGrUrCrUrUrArCrArUrArArGrArG
For B7, which “Average Editing Efficiency (%)” value is on record?
Its value is 0.35%.

And the “Editing Efficiency 1 (%)” value?
Its value is 0.31%.

And the “Editing Efficiency 2 (%)” value?
Its value is 0.04%.

And the “Editing Efficiency 3 (%)” value?
Its value is 0.70%.

B8: G-772: guide RNA SEQ ID NO: 5501 (nucleic acid)
guide: UGGCGAUUGGUGGAGGCAGGGUUUUAGAGCUAGAAAUAGCAAGUUAAAAUAAGGCUAGUCCGUUAUCAACUUGAAAAAGUGGCACCGAGUCGGUGCUUUU
modifications: sugars from the 5' end m3 r93 m3 r1, linkages s3 o93 s3 (s phosphorothioate, o phosphodiester), T or U not given here
How did the “% Editing average” value (base editor Abe7.10) turn out when B8 was run?
The value was 66%.

B9: G-159: guide RNA SEQ ID NO: 5488 (nucleic acid)
guide: GCAAACACUUGGCACAGACCGUUUUAGAGCUAGAAAUAGCAAGUUAAAAUAAGGCUAGUCCGUUAUCAACUUGAAAAAGUGGCACCGAGUCGGUGCUUUU
modifications: sugars from the 5' end m3 r93 m3 r1, linkages s3 o93 s3 (s phosphorothioate, o phosphodiester), T or U not given here
How did the “% Editing average” value (base editor Abe7.10) turn out when B9 was run?
Its value is 51%.

B10: G-200: guide RNA SEQ ID NO: 5498 (nucleic acid)
guide: GUGAAAAAGUUGCAUGGUGCGUUUUAGAGCUAGAAAUAGCAAGUUAAAAUAAGGCUAGUCCGUUAUCAACUUGAAAAAGUGGCACCGAGUCGGUGCUUUU
modifications: sugars from the 5' end m3 r93 m3 r1, linkages s3 o93 s3 (s phosphorothioate, o phosphodiester), T or U not given here
With B10 as the molecule, how does the “% Editing average” value (base editor ABE8.8-m) read?
Its value is 59%.

B11: cas12b-30: guide RNA SEQ ID NO: 383 (nucleic acid)
guide: mG*mU*mU*rCrUrGrUrCrUrUrUrUrGrGrUrCrArGrGrArCrArArCrCrGrUrCrUrArGrCrUrArUrArArGrUrGrCrUrGrCrArGrGrGrUrGrUrGrArGrArArArCrUrCrCrUrArUrUrGrCrUrGrGrArCrGrArUrGrUrCrUrCrUrUrArCrGrArGrGrCrArUrUrArGrCrArCrGrCrUrGrArCrGrCrArArCrCrCrCrCrArCrUrGrG
For B11, which “Average Editing Efficiency (%)” value is on record?
Its value is 0.02%.

And the “Editing Efficiency 1 (%)” value?
The value was 0.02%.

And the “Editing Efficiency 2 (%)” value?
Its value is 0.02%.

And the “Editing Efficiency 3 (%)” value?
Its value is 0.01%.

B12: G-474: guide RNA SEQ ID NO: 5509 (nucleic acid)
guide: GAUUAAAGGUCUUUGUACUAGUUUUAGAGCUAGAAAUAGCAAGUUAAAAUAAGGCUAGUCCGUUAUCAACUUGAAAAAGUGGCACCGAGUCGGUGCUUUU
modifications: sugars from the 5' end m3 r93 m3 r1, linkages s3 o93 s3 (s phosphorothioate, o phosphodiester), T or U not given here
How did the “% Editing average” value (base editor VRQR-ABE) turn out when B12 was run?
Its value is 74%.

B13: G-845: guide RNA SEQ ID NO: 5508 (nucleic acid)
guide: UUUGAAGUAUGCCUCAAGGUGUUUUAGAGCUAGAAAUAGCAAGUUAAAAUAAGGCUAGUCCGUUAUCAACUUGAAAAAGUGGCACCGAGUCGGUGCUUUU
modifications: sugars from the 5' end m3 r93 m3 r1, linkages s3 o93 s3 (s phosphorothioate, o phosphodiester), T or U not given here
How did the “% Editing average” value (base editor Abe7.10) turn out when B13 was run?
Its value is 70%.

B14: cas12b-42: guide RNA SEQ ID NO: 384 (nucleic acid)
guide: mG*mU*mU*rCrUrGrUrCrUrUrUrUrGrGrUrCrArGrGrArCrArArCrCrGrUrCrUrArGrCrUrArUrArArGrUrGrCrUrGrCrArGrGrGrUrGrUrGrArGrArArArCrUrCrCrUrArUrUrGrCrUrGrGrArCrGrArUrGrUrCrUrCrUrUrArCrGrArGrGrCrArUrUrArGrCrArCrGrGrArGrCrUrArCrUrGrUrGrGrArGrUrUrArCrU
With B14 as the molecule, how does the “Average Editing Efficiency (%)” value read?
The value was 28.99%.

And the “Editing Efficiency 1 (%)” value?
Its value is 29.48%.

What about the “Editing Efficiency 2 (%)” value of the same molecule?
Its value is 23.94%.

What about the “Editing Efficiency 3 (%)” value of the same molecule?
The value was 33.54%.

Source: patent US20240294914A1, “COMPOSITIONS AND METHODS FOR TREATING HEPATITIS B VIRUS INFECTION” (priority 2021, published 2024)
